Results from article PMC5794975, “Mapping the interaction site and effect of the Siglec-9 inflammatory biomarker on human primary amine oxidase” (Scientific Reports, 2018).
Bridges are numbered along the chain shown (N, C = ends). Where no end group is shown, it is not given here.

T1: Human primary amine oxidase (hAOC3), recombinant (human, UniProt Q16853 1-763, topaquinone (TPQ; 2,4,5-trihydroxyphenylalanine quinone, a post-translationally modified tyrosine); N-glycans at Asn137, Asn232, Asn294, Asn592, Asn618, Asn666)
T1 sequence (looked up): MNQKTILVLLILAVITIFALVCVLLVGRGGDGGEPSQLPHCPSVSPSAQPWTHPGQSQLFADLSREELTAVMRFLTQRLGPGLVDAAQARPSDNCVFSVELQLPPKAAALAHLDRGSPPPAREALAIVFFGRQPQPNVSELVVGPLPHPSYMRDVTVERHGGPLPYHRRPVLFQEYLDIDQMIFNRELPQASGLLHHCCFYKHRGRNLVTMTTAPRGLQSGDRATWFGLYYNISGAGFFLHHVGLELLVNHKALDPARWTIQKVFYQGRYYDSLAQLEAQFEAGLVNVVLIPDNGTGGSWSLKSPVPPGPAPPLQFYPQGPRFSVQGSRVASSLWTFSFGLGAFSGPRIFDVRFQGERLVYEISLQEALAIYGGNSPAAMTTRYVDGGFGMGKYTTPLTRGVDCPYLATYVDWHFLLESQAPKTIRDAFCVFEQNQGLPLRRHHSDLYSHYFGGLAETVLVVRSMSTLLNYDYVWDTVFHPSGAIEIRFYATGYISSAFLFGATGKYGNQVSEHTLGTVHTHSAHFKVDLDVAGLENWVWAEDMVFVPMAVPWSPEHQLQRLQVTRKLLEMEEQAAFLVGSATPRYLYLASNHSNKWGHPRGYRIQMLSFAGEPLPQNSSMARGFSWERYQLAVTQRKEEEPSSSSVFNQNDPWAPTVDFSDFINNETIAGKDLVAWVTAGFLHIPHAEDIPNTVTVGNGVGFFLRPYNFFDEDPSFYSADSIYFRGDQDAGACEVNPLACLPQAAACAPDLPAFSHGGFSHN


Target: T1, Human primary amine oxidase (hAOC3), …
Test: cell-based or functional assay

activity of hAOC3-expressing CHO cells towards [7-14C]benzylamine with 5 µM peptide, percent of the control without peptide [%]	Binder
127	CARLSLSWRGLTLCPSK (disulfide 1-14) [cyclic Siglec-9 peptide (CARLSLSWRGLTLCPSK)]
139	CAALSLSWRGLTLCPSK (disulfide 1-14) [R3A Siglec-9 peptide (CAALSLSWRGLTLCPSK)]
158	CAALSLSWAGLTLCPSK (disulfide 1-14) [R3A/R9A Siglec-9 peptide (CAALSLSWAGLTLCPSK)]
126	CARLSLSWAGLTLCPSK (disulfide 1-14) [R9A Siglec-9 peptide (CARLSLSWAGLTLCPSK)]
